Numbering of substitutions follows the chain as printed.
B1: 6E7 variant V21 (antibody, V domains shown)
VH: EVQLVQSGAEVKKPGESLKISCKGSGYSFTSYWIAWVRQMPGKGLEWMGIIYPGDSDTRYSPSFQGQVTISADKSISTAYLQWSSLKASDTAMYFCARQRTFYYDSSDFFDYWGQGTLVTVSS
VL: DIQMTQSPSSVSASVGDRVTITCRASQGISSWLAWYQQKPGKAPKLLIYAASSLQNGVPSRFSGSGSGTDFTLTISSLQPEDFATYFCQQADSFPRTFGQGTKLEIK
B2: 6E7 variant V23 (antibody, V domains shown)
VH: B1 VH with F109Y
VL: B1 VL with R96L
B3: 6E7 variant V30 (antibody, V domains shown)
VH: B1 VH with Y27S, F109Y
VL: B1 VL
B4: 6E7 variant V20 (antibody, V domains shown)
VH: B1 VH with I50R, F109Y
VL: B1 VL
B5: 6E7 variant V31 (antibody, V domains shown)
VH: B1 VH with D57E, F109Y
VL: B1 VL
B6: 6E7 variant V33 (antibody, V domains shown)
VH: B1 VH with Y104G, F109Y
VL: B1 VL
B7: 6E7 variant V22 (antibody, V domains shown)
VH: B1 VH with F109Y
VL: B1 VL with A50R
B8: 6E7 variant V19 (antibody, V domains shown)
VH: B1 VH with Y32S, F109Y
VL: B1 VL
B9: 6E7 variant V18 (antibody, V domains shown)
VH: B1 VH with W33H, F109Y
VL: B1 VL
B10: 6E7 variant V32 (antibody, V domains shown)
VH: B1 VH with P62N, F109Y
VL: B1 VL
B11: 6E7 variant V11 (antibody, V domains shown)
VH: B1 VH with F109Y
VL: B1 VL with D92A
B12: 6E7 variant V36 (antibody, V domains shown)
VH: B1 VH with I34L, Q99S, F109Y
VL: B1 VL with L54R, F94Y
B13: 6E7 variant V2 (antibody, V domains shown)
VH: B1 VH with Y27S, S56G, Q99S, F109Y
VL: B1 VL with L54R, S93R
B14: 6E7 variant V63 (antibody, V domains shown)
VH: B1 VH with T30R, Q99S, F109Y
VL: B1 VL with N56R, S93R
B15: 6E7 variant V53 (antibody, V domains shown)
VH: B1 VH with S63H, F109Y
VL: B1 VL
B16: 6E7 variant V51 (antibody, V domains shown)
VH: B1 VH with T58V, Q99G, F109Y, Y112N
VL: B1 VL with L54R
B17: 6E7 variant V60 (antibody, V domains shown)
VH: B1 VH with S28H, T58V, F109Y, F110S
VL: B1 VL with N56R, Q89G
B18: 6E7 variant V49 (antibody, V domains shown)
VH: B1 VH with T30N, I50T, Y60L, Q99S, F109Y
VL: B1 VL with L54R, F94Y
B19: 6E7 variant V37 (antibody, V domains shown)
VH: B1 VH with F29H, Q65A, Q99S, F109Y
VL: B1 VL with N56W, F94Y
B20: 6E7 variant V73 (antibody, V domains shown)
VH: B1 VH with T30G, S63G, Q99G, F109Y
VL: B1 VL with L54R, F94Y
B21: 6E7 variant V61 (antibody, V domains shown)
VH: B1 VH with T30S, S61N, Q99G, F109Y
VL: B1 VL with Q55V, F94L
B22: 6E7 variant V64 (antibody, V domains shown)
VH: B1 VH with T30Q, Q99G, F109Y
VL: B1 VL with Q55A, F94Y
B23: 6E7 variant V65 (antibody, V domains shown)
VH: B1 VH with Q99S, F109Y
VL: B1 VL
B24: 6E7 variant V38 (antibody, V domains shown)
VH: B1 VH with T30G, T58V, F109Y
VL: B1 VL with L54R, F94H
B25: 6E7 variant V39 (antibody, V domains shown)
VH: B1 VH with T30G, S61N, Q99G, F109Y
VL: B1 VL with Q55V, F94S
B26: 6E7 variant V1 (antibody, V domains shown)
VH: B1 VH with Y32S, Q99S, F109Y
VL: B1 VL with Q55T, F94Y
B27: 6E7 variant V41 (antibody, V domains shown)
VH: B1 VH with I50T, F109Y
VL: B1 VL
B28: 6E7 variant V40 (antibody, V domains shown)
VH: B1 VH with T30G, T58V, F109Y, F110S
VL: B1 VL with N56L, S93R
B29: 6E7 variant V62 (antibody, V domains shown)
VH: B1 VH with T30G, S61A, D108G, F109Y
VL: B1 VL with N56R, Q89G
B30: 6E7 variant V50 (antibody, V domains shown)
VH: B1 VH with T30G, I50V, F109Y, F110L
VL: B1 VL with L54R, F94L
B31: 6E7 variant V74 (antibody, V domains shown)
VH: B1 VH with T30A, T58V, Q99G, F109Y
VL: B1 VL with N56L
B32: 6E7 variant V48 (antibody, V domains shown)
VH: B1 VH with T30G, T58V, Q99M, F109Y
VL: B1 VL with N56T, F94L

biological target: T1, human TREM2 (human) (UniProt Q9NZC2); experiment: 1st screen, 110 nM Ab
T1 sequence (looked up): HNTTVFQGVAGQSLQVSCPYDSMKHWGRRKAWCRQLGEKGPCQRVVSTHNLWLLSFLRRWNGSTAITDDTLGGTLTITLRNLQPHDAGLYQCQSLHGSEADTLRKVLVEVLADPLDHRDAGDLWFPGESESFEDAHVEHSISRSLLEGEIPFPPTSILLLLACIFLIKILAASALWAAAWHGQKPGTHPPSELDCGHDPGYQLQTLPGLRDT

| Binding Signal (fold over 6E7 parental antibody) [fold] | Binder |
| --- | --- |
| 0.76 | B1 |
| 0.4 | B2 |
| 0.79 | B3 |
| 0.18 | B4 |
| 0.61 | B5 |
| 0.23 | B6 |
| 0.3 | B7 |
| 0.59 | B8 |
| 0.17 | B9 |
| 0.82 | B10 |
| 0.79 | B11 |

biological target: T1, human TREM2 (human); experiment: 2nd screen, 100 nM Ab

| Binding Signal (fold over 6E7 parental antibody) [fold] | Binder |
| --- | --- |
| 0.68 | B1 |
| 0.4 | B2 |
| 0.72 | B3 |
| 0.52 | B4 |
| 0.73 | B5 |
| 0.34 | B6 |
| 0.71 | B7 |
| 0.48 | B8 |
| 0.42 | B9 |
| 0.89 | B10 |
| 0.42 | B11 |

biological target: T1, human TREM2 (human); experiment: 2nd screen, 2 nM Ab

| Binding Signal (fold over 6E7 parental antibody) [fold] | Binder |
| --- | --- |
| 4 | B12 |
| 2.23 | B13 |
| 4.91 | B14 |
| 0.66 | B15 |
| 1.83 | B16 |
| 3.35 | B17 |
| 5.02 | B18 |
| 3.69 | B19 |
| 4.17 | B20 |
| 3.63 | B21 |
| 4.88 | B22 |
| 1.29 | B23 |
| 3.44 | B24 |
| 5.11 | B25 |
| 1.29 | B26 |
| 0.58 | B27 |
| 3.41 | B28 |
| 1.87 | B29 |
| 3.39 | B30 |
| 2.54 | B31 |
| 2.3 | B32 |

biological target: T1, human TREM2 (human); experiment: 1st screen, 10 nM Ab

| Binding Signal (fold over 6E7 parental antibody) [fold] | Binder |
| --- | --- |
| 3.38 | B12 |
| 2.55 | B13 |
| 3.76 | B14 |
| 1.25 | B15 |
| 2.81 | B16 |
| 3.26 | B17 |
| 6.51 | B18 |
| 3.46 | B19 |
| 5.12 | B20 |
| 5.08 | B21 |
| 5.41 | B22 |
| 2.05 | B23 |
| 4.34 | B24 |
| 6.15 | B25 |
| 1.68 | B26 |
| 1.74 | B27 |
| 4.48 | B28 |
| 2.49 | B29 |
| 4.1 | B30 |
| 3.94 | B31 |
| 2.42 | B32 |

biological target: T1, human TREM2 (human); experiment: 2nd screen, 10 nM Ab

| Binding Signal (fold over 6E7 parental antibody) [fold] | Binder |
| --- | --- |
| 3.44 | B12 |
| 2.9 | B13 |
| 3.71 | B14 |
| 1.17 | B15 |
| 3.18 | B16 |
| 3.63 | B17 |
| 6.58 | B18 |
| 3.49 | B19 |
| 5.44 | B20 |
| 5.22 | B21 |
| 5.48 | B22 |
| 2.75 | B23 |
| 4.36 | B24 |
| 5.81 | B25 |
| 1.92 | B26 |
| 1.72 | B27 |
| 4.16 | B28 |
| 2.89 | B29 |
| 4.16 | B30 |
| 4.01 | B31 |
| 2.54 | B32 |
